Laboratory results published in FireProtDB (doi:10.1016/j.jmb.2009.05.011).
Several values for one entry are separate records, joined by “and”; a condition that tells them apart may be missing. Identical values can stand only once.

B1: Dihydrolipoyllysine-residue succinyltransferase component of 2-oxoglutarate dehydrogenase complex, P0AFG6 (parent)
chain: MSSVDILVPDLPESVADATVATWHKKPGDAVVRDEVLVEIETDKVVLEVPASADGILDAVLEDEGTTVTSRQILGRLREGNSAGKETSAKSEEKASTPAQRQQASLEEQNNDALSPAIRRLLAEHNLDASAIKGTGVGGRLTREDVEKHLAKAPAKESAPAAAAPAAQPALAARSEKRVPMTRLRKRVAERLLEAKNSTAMLTTFNEVNMKPIMDLRKQYGEAFEKRHGIRLGFMSFYVKAVVEALKRYPEVNASIDGDDVVYHNYFDVSMAVSTPRGLVTPVLRDVDTLGMADIEKKIKELAVKGRDGKLTVEDLTGGNFTITNGGVFGSLMSTPIINPPQSAILGMHAIKDRPMAVNGQVEILPMMYLALSYDHRLIDGRESVGFLVTIKELLEDPTRLLLDV

Variants of: B1
Details: Escherichia coli (strain K12), pH 7, structure 1W4H, whole UniProt chain shown
[1] = 10 °C, GdnHCl, CD, 3-[morpholino]propanesulfonic acid 50 mM, NaCl 200 mM
[2] = 10 °C, GdnHCl, Fluorescence, 3-[morpholino]propanesulfonic acid 50 mM, NaCl 200 mM
[3] = Thermal, CD, Potassium phosphate 50 mM, KCl 200 mM

MSSVDILVPDLPESVADATVATWHKKPGDAVVRDEVLVEIETDKVVLEVPASADGILDAVLEDEGTTVTSRQILGRLREGNSAGKETSAKSEEKASTPAQRQQASLEEQNNDALSPAIRRLLAEHNLDASAVKGTGVGGRLTREDVEKHLAKAPAKESAPAAAAPAAQPALAARSEKRVPMTRLRKRVAERLLEAKNSTAMLTTFNEVNMKPIMDLRKQYGEAFEKRHGIRLGFMSFYVKAVVEALKRYPEVNASIDGDDVVYHNYFDVSMAVSTPRGLVTPVLRDVDTLGMADIEKKIKELAVKGRDGKLTVEDLTGGNFTITNGGVFGSLMSTPIINPPQSAILGMHAIKDRPMAVNGQVEILPMMYLALSYDHRLIDGRESVGFLVTIKELLEDPTRLLLDV [I132V]
ddG of mutation (higher = less stable) [1]: 0.7 kcal/mol
denaturant m value [1]: 0.73 kcal/mol/M
denaturant midpoint (higher = more stable) [1]: 2.88 M
unfolding free energy [1]: 2.1 kcal/mol
denaturant m value [2]: 0.47 kcal/mol/M
Tm [3]: 44.4 °C
ddG of mutation (higher = less stable) [3]: 0.75 kcal/mol
unfolding enthalpy (van 't Hoff) [3]: 22 kcal/mol

MSSVDILVPDLPESVADATVATWHKKPGDAVVRDEVLVEIETDKVVLEVPASADGILDAVLEDEGTTVTSRQILGRLREGNSAGKETSAKSEEKASTPAQRQQASLEEQNNDALSPAIRRLLAEHNLDGSAIKGTGVGGRLTREDVEKHLAKAPAKESAPAAAAPAAQPALAARSEKRVPMTRLRKRVAERLLEAKNSTAMLTTFNEVNMKPIMDLRKQYGEAFEKRHGIRLGFMSFYVKAVVEALKRYPEVNASIDGDDVVYHNYFDVSMAVSTPRGLVTPVLRDVDTLGMADIEKKIKELAVKGRDGKLTVEDLTGGNFTITNGGVFGSLMSTPIINPPQSAILGMHAIKDRPMAVNGQVEILPMMYLALSYDHRLIDGRESVGFLVTIKELLEDPTRLLLDV [A129G]
ddG of mutation (higher = less stable) [1]: 0.56 kcal/mol
denaturant m value [1]: 0.72 kcal/mol/M
denaturant midpoint (higher = more stable) [1]: 3.07 M
unfolding free energy [1]: 2.21 kcal/mol
denaturant m value [2]: 0.5 kcal/mol/M and 0.2 kcal/mol/M
unfolding free energy [2]: 2.22 kcal/mol
Tm [3]: 46.5 °C
ddG of mutation (higher = less stable) [3]: 0.58 kcal/mol
unfolding enthalpy (van 't Hoff) [3]: 22 kcal/mol

MSSVDILVPDLPESVADATVATWHKKPGDAVVRDEVLVEIETDKVVLEVPASADGILDAVLEDEGTTVTSRQILGRLREGNSAGKETSAKSEEKASTPAQRQQASLEEQNNDALSPAIRRLLAEHNLDASGIKGTGVGGRLTREDVEKHLAKAPAKESAPAAAAPAAQPALAARSEKRVPMTRLRKRVAERLLEAKNSTAMLTTFNEVNMKPIMDLRKQYGEAFEKRHGIRLGFMSFYVKAVVEALKRYPEVNASIDGDDVVYHNYFDVSMAVSTPRGLVTPVLRDVDTLGMADIEKKIKELAVKGRDGKLTVEDLTGGNFTITNGGVFGSLMSTPIINPPQSAILGMHAIKDRPMAVNGQVEILPMMYLALSYDHRLIDGRESVGFLVTIKELLEDPTRLLLDV [A131G]
ddG of mutation (higher = less stable) [1]: 0.52 kcal/mol
denaturant m value [1]: 0.71 kcal/mol/M
denaturant midpoint (higher = more stable) [1]: 3.12 M
unfolding free energy [1]: 2.22 kcal/mol
denaturant m value [2]: 0.43 kcal/mol/M and 0.28 kcal/mol/M
unfolding free energy [2]: 2.44 kcal/mol
Tm [3]: 48.5 °C
ddG of mutation (higher = less stable) [3]: 0.43 kcal/mol
unfolding enthalpy (van 't Hoff) [3]: 21 kcal/mol

MSSVDILVPDLPESVADATVATWHKKPGDAVVRDEVLVEIETDKVVLEVPASADGILDAVLEDEGTTVTSRQILGRLREGNSAGKETSAKSEEKASTPAQRQQASLEEQNNDALSPAIRRLLAEHNADASAIKGTGVGGRLTREDVEKHLAKAPAKESAPAAAAPAAQPALAARSEKRVPMTRLRKRVAERLLEAKNSTAMLTTFNEVNMKPIMDLRKQYGEAFEKRHGIRLGFMSFYVKAVVEALKRYPEVNASIDGDDVVYHNYFDVSMAVSTPRGLVTPVLRDVDTLGMADIEKKIKELAVKGRDGKLTVEDLTGGNFTITNGGVFGSLMSTPIINPPQSAILGMHAIKDRPMAVNGQVEILPMMYLALSYDHRLIDGRESVGFLVTIKELLEDPTRLLLDV [L127A]
ddG of mutation (higher = less stable) [1]: 1.37 kcal/mol
denaturant m value [1]: 0.63 kcal/mol/M
denaturant midpoint (higher = more stable) [1]: 1.95 M
unfolding free energy [1]: 1.23 kcal/mol
denaturant m value [2]: 0.41 kcal/mol/M and 0.18 kcal/mol/M
unfolding free energy [2]: 1.2 kcal/mol
Tm [3]: 29.2 °C
ddG of mutation (higher = less stable) [3]: 1.9 kcal/mol
unfolding enthalpy (van 't Hoff) [3]: 12 kcal/mol

MSSVDILVPDLPESVADATVATWHKKPGDAVVRDEVLVEIETDKVVLEVPASADGILDAVLEDEGTTVTSRQILGRLREGNSAGKETSAKSEEKASTPAQRQQASLEEQNNDALSPAIRRLLAEHNLDASAIKGAGVGGRLTREDVEKHLAKAPAKESAPAAAAPAAQPALAARSEKRVPMTRLRKRVAERLLEAKNSTAMLTTFNEVNMKPIMDLRKQYGEAFEKRHGIRLGFMSFYVKAVVEALKRYPEVNASIDGDDVVYHNYFDVSMAVSTPRGLVTPVLRDVDTLGMADIEKKIKELAVKGRDGKLTVEDLTGGNFTITNGGVFGSLMSTPIINPPQSAILGMHAIKDRPMAVNGQVEILPMMYLALSYDHRLIDGRESVGFLVTIKELLEDPTRLLLDV [T135A]
ddG of mutation (higher = less stable) [1]: 1.68 kcal/mol
denaturant m value [1]: 0.69 kcal/mol/M
denaturant midpoint (higher = more stable) [1]: 1.51 M
unfolding free energy [1]: 1.04 kcal/mol
unfolding free energy [2]: 0.78 kcal/mol
Tm [3]: 36.4 °C
ddG of mutation (higher = less stable) [3]: 1.36 kcal/mol
unfolding enthalpy (van 't Hoff) [3]: 9 kcal/mol
